# In EP4768503A1 (Keymed Biosciences (Chengdu) Co., Ltd., dated 2026):
# Positions count from the first letter of the chain named. Where no end group is shown, it is not given here. [ ]: non-standard residue; d: D form. pGlu = O=C1CC[C@@H](C(=O)O)N1
# B1: 6B5 H1K2 hIgG1 (antibody, V domains shown)
# VH: QVQLVQSGAEVKKPGASVKVSCKASGYTFTTYWMHWVRQAPGQGLEWIGEIDPSDSYTNYNQKFKGRATLTVDKSSSTAYMELSSLRSEDTAVYYCARSFHGNFFVYWGQGTLVTVSS
# VL: EIVLTQSPATLSLSPGERATLSCRASSSVSYMHWFQQKPGQAPRLLIYSTSNLATGIPARFSGSGSGTDYTLTISRLEPEDFAVYYCQQRSSYPLTFGQGTKLEIK
# notes: also called h6B5 H1 + h6B5 K2
# B2: 6B5 H1K5 hIgG1 (antibody, V domains shown)
# VH: B1 VH
# VL: DIQMTQSPSSLSASVGDRVTITCRASSSVSYMHWFQQKPGKAPKLLIYSTSNLASGVPSRFSGSGSGTDYTLTISSLQPEDFATYYCQQRSSYPLTFGQGTKLEIK
# notes: also called h6B5 H1 + h6B5 K5
# B3: 6B5 H1K6 hIgG1 (antibody, V domains shown)
# VH: B1 VH
# VL: B2 VL with N52S, A54Q
# notes: also called h6B5 H1 + h6B5 K6
# B4: 6B5 H1K4 hIgG1 (antibody, V domains shown)
# VH: B1 VH
# VL: B2 VL with M4L, L46W
# notes: also called h6B5 H1 + h6B5 K4
# B5: 6B5 H1K1 hIgG1 (antibody, V domains shown)
# VH: B1 VH
# VL: B1 VL with L46W, T55S
# notes: also called h6B5 H1 + h6B5 K1
# B6: 6B5 H1K3 hIgG1 (antibody, V domains shown)
# VH: B1 VH
# VL: B1 VL with N52S, L53R
# notes: also called h6B5 H1 + h6B5 K3
# B7: 6B5 (antibody, V domains shown)
# VH: EVQLQQSGAELVKPGASVKLSCKASGYTFTTYWMHWVKQRPGQGLEWIGEIDPSDSYTNYNQKFKGKATLTVDKSSSTAYMQLSSLTSEDSAVYYCARSFHGNFFVYWGQGTLVTVSA
# VL: QIVLTQSPAIMSASPGEKVTITCSASSSVSYMHWFQQKPGTSPKLWIYSTSNLASGVPARFSGSGSGTSYSLTISRMEAEDAATYYCQQRSSYPLTFGAGTKLELK
# notes: Chimeric (parent) antibody; the constant region of the chimeric form is not specified
# B8: 6C9 (antibody, V domains shown)
# VH: B7 VH with E1Q, T31N, W33Y, M34V, T58S
# VL: B7 VL with P15L, K18E, V19I, I21L, L95P, A99G, L105I
# notes: Chimeric antibody; the constant region of the chimeric form is not specified
# B9: 11G10 (antibody, V domains shown)
# VH: B7 VH with L11I, T31S, S84R, F104L
# VL: B7 VL with S55T, L105I
# notes: as for B8
# B10: 193D22 (antibody, V domains shown)
# VH: EVKLVESGGGLVKPGGSLKLSCAASGFAFSSYDMSWVRQTPEKRLEWVATISNGGSYTYYPDSVKGRFSISRDNARNTLYLQMSSLRSEDTALYYCARHPLYYGNYGWWYFDVWGAGTTVTVSS
# VL: DVVMTQTPLSLPVSLGDQASISCRSSQSLVYSNGNTYLYWYLQKPGQSPKLLIYKVSNRFSGVPDRFSGSGSGTDFTLKISRVEAEDLGVYFCSQSTHVPLTFGAGTKLELK
# notes: as for B8
# B11: 193M7 (antibody, V domains shown)
# VH: B10 VH with N53S, G54R, S56T, S69T, D73N, W108Y
# VL: B10 VL with Y31H, N33D, T36I
# notes: as for B8
# B12: 175P19 (antibody, V domains shown)
# VH: EVMLVESGRDLVKPGGSLRLSCAASGFTFSTYAMSWIRQTPEKRLEWVATITSAGTYTYYPDSVKGRFTISRDNAKNTLYLQMRSLRSEDTAMYYCVRHELITTVVSTDYFSMDYWGQGTSVTVSS
# VL: DIVLTQSPASLAVSLGQRATISCRASESVEYYGTSLMQWYQQKPGQPPKLLIYAASNVESGVPARFSGSGSGTDFSLNIHPVEEDDVAMYFCQQSRKVPLTFGAGTKLELK
# notes: as for B8
# B13: 185O18 (antibody, V domains shown)
# VH: B12 VH with R19K, S53N, A54Y
# VL: B12 VL with Y31D
# notes: Chimeric antibody; also called 185018
# B14: 192E15 (antibody, V domains shown)
# VH: EVKLVESGGGLVQPGGSRKLSCAASGFTFSDYGMAWVRQAPGKGPEWVAFISNLAYSIYYADTVTGRFTISRQNAKNTLYLEMSSLRSEDTAMYYCARDRGYDGHSPYYAMDYWGQGTSVTVSS
# VL: QAVVTQESALTTSPGETVTLTCRSSTGAVTTSNYANWVQEKPDHLFTGLIGGTSNRPPGVPARFSGSLIGDKAALTITGAQTEDEAIYFCALWYSHHWVFGGGTKLTVL
# notes: as for B8
# B15: 178D4 (antibody, V domains shown)
# VH: QVQLQQSGAELVKPGASVKLSCKASGYTFTSYDLNWVRQRPEQGLEWIGWTFPGDGRTKYNEKFKGKATLTTDKSSSTAYMHLSRLTSEDSAVYFCVRWDYYGRSTGYFDVWGAGTTVTVSS
# VL: QIVLTQSPAIMSASLGERVTMTCTASSSVSSSYLHWYQQRPGSSPKLWIYGTSNLASGVPARFSGSGSGTSYSLTISSMEAEDAATYYCHQYHRSPLTFGAGTKLELK
# notes: as for B8
# B16: 151N5 (antibody, V domains shown)
# VH: EVQLVESGGGLVKPGGSLKLSCAASGFTFSDFYMYWVRQTPEKRLEWVATISDGGRYTYYPDRLKGRFTISRNIAKNNLYLQMSSLKSEDTAMYYCARGRSTMITTTRNYFALDYWGQGTSVTVSS
# VL: DIQMTQSSSSFSVSLGDRVTITCKASEDIYNRLAWYQQKPGDAPRLLISGAIRLETGVPSRFSGSGSGKDYTLSITSLQTEDGATYYCQQYWRTPLTFGAGIKLELK
# notes: as for B7
# B17: 174J17 (antibody, V domains shown)
# VH: B16 VH with F29L, F32Y, R63S, L64V, N73D, L81I, K87R, F111L
# VL: DIQMTQSSSSFSVSVGDRVTVTCKASEDIYNRLAWYQQRPGNAPRLLISGATSLETGVPSRFSGSGSGKDYILSITSLQTEDVGTYYCQQYWRTPLTFGEGTKLELK
# notes: as for B8
# B18: 171P1 (antibody, V domains shown)
# VH: QVQLEQPGAVSVRPGASVKLSCKASGYTFTSYWINWVKQRPGQGLEWIGNIYPSDSYTHYNQKFKDKATLTVDKSSTTAYMQISSPTSEDSAVYYCTREGTVVYWGQGTLLTVSA
# VL: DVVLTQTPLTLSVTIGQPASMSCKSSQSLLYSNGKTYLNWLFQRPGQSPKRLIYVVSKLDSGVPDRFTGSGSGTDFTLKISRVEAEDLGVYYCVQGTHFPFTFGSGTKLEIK
# notes: as for B8
# B19: 200O1 (antibody, V domains shown)
# VH: QVQLKESGPGLVAPSQSLSITCTVSGFSLSRYIVHWYRQPPGKGLEWLGMIWGGGRIDYNSALKSRLSISKDNSKSQVFLKMNSLQTDDTAMYYCARNFGENAEAYWGQGTLVTVSA
# VL: DIQMTQTTSSLSASLGDRVTITCRASQDINIYLNWYQQKPDGVVKLLIYYTSRLHSGVPSRFSGSGSGTDFSLTISNLEQEDIATYFCQQGHTLPYTFGGGTKLEIK
# notes: Chimeric (parent) antibody; the constant region of the chimeric form is not specified; also called 20001
# B20: 200O1 H1K1 (antibody, V domains shown)
# VH: QVTLKESGPVLVKPTETLTLTCTVSGFSLSRYIVHWYRQPPGKALEWLAMIWGGGRIDYNSALKSRLTISKDNSKSQVVLTMTNMDPVDTATYYCARNFGENAEAYWGQGTLVTVSS
# VL: DIQMTQSPSSLSASVGDRVTITCRASQDINIYLNWYQQKPGKVVKLLIYYTSRLHSGVPSRFSGSGSGTDFTLTISSLQPEDVATYFCQQGHTLPYTFGQGTKLEIK
# notes: also called h200O1 H1K1 hIgG1; h200O1 H1K1
# B21: 200O1 H5K1 (antibody, V domains shown)
# VH: QVQLQESGPGLVKPSETLSLTCTVSGFSLSRYIVHWYRQPPGKGLEWIGMIWGGGRIDYNSALKSRVTISKDNSKSQVSLKLSSVTAADTAVYYCARNFGENAEAYWGQGTLVTVSS
# VL: B20 VL
# notes: also called h200O1 H5 + h200O1 K1
# B22: 200O1 H2K1 (antibody, V domains shown)
# VH: B20 VH with N73T
# VL: B20 VL
# notes: also called h200O1 H2 + h200O1 K1
# B23: 200O1 H6K1 (antibody, V domains shown)
# VH: B21 VH with N73T, S76N
# VL: B20 VL
# notes: also called h200O1 H6 + h200O1 K1
# B24: 151N5 H1K1 (antibody, V domains shown)
# VH: EVQLVESGGGLVKPGGSLRLSCAASGFTFSDFYMYWVRQAPGKGLEWVATISDGGRYTYYPDRLKGRFTISRDIAKNSLYLQMNSLRAEDTAVYYCARGRSTMITTTRNYFALDYWGQGTLVTVSS
# VL: DIQMTQSPSSLSASVGDRVTITCKASEDIYNRLAWYQQKPGKAPKLLISGATSLETGVPSRFSGSGSGKDYTLTISSLQPEDIATYYCQQYWRTPLTFGQGTKLEIK
# notes: also called h151N5 H1 + h151N5 K1
# B25: 151N5 H1K2 (antibody, V domains shown)
# VH: B24 VH
# VL: B24 VL with I83V
# notes: also called h151N5 H1 + h151N5 K2
# Molecular target: T1, Aβ1-42 protofibril (human)
# T1 construct: also called amyloid protofibril
# T1 sequence (peptide, as listed by the source): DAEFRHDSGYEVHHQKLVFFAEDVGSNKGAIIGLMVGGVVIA
# Assay: SPR (Biacore T200), protofibril on CM5 chip, antibody as analyte
Binder,Kd [pM],koff [s⁻¹],kon [M⁻¹ s⁻¹]
B1,2110,0.00361,1.71e+06
B2,1870,0.00354,1.9e+06
B3,1640,0.00401,2.44e+06
B4,1600,0.00229,1.43e+06
B5,1700,0.00255,1.49e+06
B6,1420,0.00404,2.85e+06
B7,1710,0.00196,1.15e+06

# Molecular target: T1, Aβ1-42 protofibril
# Assay: graded binding, chimeric antibody (assay not named; ELISA in Example 1)
row,Binder,binding result
1,B8,binds
2,B9,binds

# Molecular target: T2, pyroE Aβ3-42 peptide (human, pyroglutamate derived from glutamic acid at the third amino acid position of Aβ (N-terminus of the peptide))
# T2 construct: Synthetic peptide; It lacks the first two N-terminal residues of Aβ; also called pyroglutamate-modified β-amyloid
# T2 sequence (peptide, as listed by the source): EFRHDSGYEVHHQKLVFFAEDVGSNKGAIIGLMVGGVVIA
# Assay: as above
row,Binder,binding result
1,B7,binds
2,B8,binds
3,B9,binds
4,B10,binds
5,B11,binds
6,B12,binds
7,B13,binds
8,B14,binds
9,B15,binds
10,B16,binds
11,B17,binds
12,B18,binds
13,B19,binds

# Molecular target: T3, Aβ1-42 monomer (human)
# T3 construct: Preparation of the monomer is not described
# Assay: as above
row,Binder,binding result
1,B7,binds
2,B8,binds
3,B9,binds

# Molecular target: T4, pyroE Aβ3-16-biotin polypeptide (human, also: biotin, position not given here)
# T4 peptide: [pGlu]FRHDSGYEVHHQK
# Assay: SPR (Biacore T200), biotinylated peptide on SA chip, antibody as analyte; antigen channel not given
Binder,Kd [pM],kon [M⁻¹ s⁻¹],koff [s⁻¹]
B20,0.0011,682000,–
B21,0.0736,776000,5.7e-08
B22,0.625,381000,2.38e-07
B23,0.61,747000,4.55e-07
B24,321,622000,0.0002
B25,319,648000,0.000207
B16,291,1.1e+06,0.000319
B19,0.0716,760000,5.44e-08
